Assay results from paper PMC4635315 (2015).

Experiments:
[1] = biological target: BARTL1 (CCDC104/CFAP36) 1-133 (Homo sapiens, UniProt Q96G28); experiment: fluorescence polarization
BARTL1 (CCDC104/CFAP36) = BARTL1 (CCDC104/CFAP36) (Homo sapiens, UniProt Q96G28); experiment: fluorescence polarization
Sequence of BARTL1 (CCDC104/CFAP36) (Q96G28 whole entry): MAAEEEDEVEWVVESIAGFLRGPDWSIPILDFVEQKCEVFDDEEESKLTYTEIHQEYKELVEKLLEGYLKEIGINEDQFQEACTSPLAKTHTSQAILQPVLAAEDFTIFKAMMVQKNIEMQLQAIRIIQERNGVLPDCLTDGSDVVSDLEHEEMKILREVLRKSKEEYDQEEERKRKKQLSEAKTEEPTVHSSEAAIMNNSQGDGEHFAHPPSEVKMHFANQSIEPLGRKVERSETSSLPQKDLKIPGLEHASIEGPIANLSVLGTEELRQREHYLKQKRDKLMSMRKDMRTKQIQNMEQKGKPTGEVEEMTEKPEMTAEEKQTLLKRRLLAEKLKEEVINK

Sequence of BARTL1 (CCDC104/CFAP36) 1-133 (Q96G28 1-133): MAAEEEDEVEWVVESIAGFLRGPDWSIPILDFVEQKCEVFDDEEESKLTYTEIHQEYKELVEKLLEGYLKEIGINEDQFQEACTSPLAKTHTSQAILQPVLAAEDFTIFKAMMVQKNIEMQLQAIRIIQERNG

B1: Arl2 (protein)
chain: GLLTILKKMKQKERELRLLMLGLDNAGKTTILKKFNGEDVDTISPTLGFNIKTLEHRGFKLNIWDVGGQKSLRSYWRNYFESTDGLIWVVDSADRQRMQDCQRELQSLLVEERLAGATLLIFANKQDLPGALSCNAIQEALELDSIRSHHWRIQGCSAVTGEDLLPGIDWLLDDISSRVFTAD
modifications: mant-GppNHp-bound Arl2
Kd [1]: ~4.3 µM
Kd (BARTL1 (CCDC104/CFAP36)): ~10 µM
